{
  "source": "paper doi:10.1101/757856",
  "key": {"[1]": {"molecular_target": "full-length human Neurofibromin (His6-tagged, purified) (human) (UniProt P21359)", "assay": "SAXS and SANS"}, "[2]": {"molecular_target": "full-length human Neurofibromin (His6-tagged, purified) (human) (UniProt P21359)", "assay": "AUC"}, "[3]": {"molecular_target": "full-length human Neurofibromin (His6-tagged, purified) (human) (UniProt P21359)", "assay": "SEC"}, "[4]": {"molecular_target": "full-length human Neurofibromin (His6-tagged, purified) (human) (UniProt P21359)", "assay": "negative stain electron microscopy"}, "[5]": {"molecular_target": "full-length human Neurofibromin (His6-tagged, purified) (human) (UniProt P21359)", "assay": "SEC-MALS"}},
  "note": "pKd: −log10 of the molar value.",
  "data": [
    {"substance": "full-length human Neurofibromin (His6-tagged, purified), P21359-2 1-2818", "values": [
      {"measurement": "stoichiometry N", "setting": "[1]", "result": 2},
      {"measurement": "pKd", "setting": "[2]", "result": "> 8.30"},
      {"measurement": "stoichiometry N", "setting": "[2]", "result": 2},
      {"measurement": "stoichiometry N", "setting": "[3]", "result": 2},
      {"measurement": "stoichiometry N", "setting": "[4]", "result": 2},
      {"measurement": "stoichiometry N", "setting": "[5]", "result": 2}
    ]}
  ]
}
